Sequences and labels used below:
T1: mTLR9-cECD (C-terminal proteolytic fragment of TLR9 ectodomain) (Mus musculus, UniProt Q9EQU3 474-824)
T1 sequence: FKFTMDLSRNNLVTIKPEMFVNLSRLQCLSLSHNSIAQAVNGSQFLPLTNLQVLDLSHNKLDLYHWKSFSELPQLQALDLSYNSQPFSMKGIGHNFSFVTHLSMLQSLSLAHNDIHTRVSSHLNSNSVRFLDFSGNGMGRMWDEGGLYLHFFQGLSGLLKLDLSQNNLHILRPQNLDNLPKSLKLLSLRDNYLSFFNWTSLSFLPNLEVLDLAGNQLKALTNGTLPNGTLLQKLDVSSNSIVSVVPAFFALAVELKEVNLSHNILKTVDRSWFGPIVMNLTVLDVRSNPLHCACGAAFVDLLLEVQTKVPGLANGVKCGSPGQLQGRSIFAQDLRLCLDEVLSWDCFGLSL

B1: R:D60 (Cy3) (DNA:RNA)
RNA: GUGUGUGUGUGUGUGUGUGUGUGUGUGUGUGUGUGUGUGUGUGUGUGUGUGUGUGUGUGU
?: ACACACACACACACACACACACACACACACACACACACACACACACACACACACACACAC
B2: Cy3-ssRNA60 (ssRNA)
RNA: B1 RNA
B3: Cy5-ssDNA60 (ssDNA)
DNA: B1 ?

In the data set the target is T1, mTLR9-cECD (C-terminal proteolytic …). Description: fluorescence anisotropy; 20 mM MES pH 5.6, 100 mM NaCl, 2 mM beta-mercaptoethanol, 25 C, 0.2 uM labelled R:D60, protein 10 nM-3.0 uM, 10 min equilibration. For orientation: In fluorescence polarisation assays a small probe gives low polarisation when free and higher when bound to something large.
In turn, B1 gave a Kd of 27.2 nM. This lies in the double-digit nanomolar range.
As to B2, the Kd was determined as 1080 nM.
B3 registered a Kd of 142 nM.

In general, Kd refers to the concentration at which binding is half-saturated. High values mean a looser complex, low ones a tighter complex.

Source of the values: article PMC3989650.
